Biological target: CD20 (UniProt P11836)
Experiment: cell-based or functional assay

Sequence of UniProt P11836 (P11836 whole entry): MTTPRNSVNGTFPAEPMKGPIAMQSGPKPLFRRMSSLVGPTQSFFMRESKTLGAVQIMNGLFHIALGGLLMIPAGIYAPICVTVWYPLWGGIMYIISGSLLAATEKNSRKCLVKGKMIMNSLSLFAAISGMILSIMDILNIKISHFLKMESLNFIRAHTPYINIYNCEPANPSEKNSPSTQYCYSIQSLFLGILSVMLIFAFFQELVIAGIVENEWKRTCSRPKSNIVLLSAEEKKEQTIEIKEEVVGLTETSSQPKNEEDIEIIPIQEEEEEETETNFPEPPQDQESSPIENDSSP

ADCC on Raji cells with NK92MI-CD16a effector cells (LDH release), EC50(ng/mL): 0.607 ng/mL
CDC on Raji cells with human serum complement (LDH release), EC50(ng/mL): 210 ng/mL
Substance: Rituximab (antibody)
